In the supplement of paper PMC7877785:
± gives the uncertainty stated by the source.

Assay: self-splicing fitness, log relative to wild type (ln ratio); higher = more splicing; Tetrahymena group I intron in knt gene, E. coli kanamycin selection, DiMSum; sequences stand for … in CUCUCU…GGAGGGAAAAGUUAUCAGGCAUGCACCUGGUAGCUAGUCUUUAAACCAAUAGAUUGCAUCGGUUUAAAAGGCAAGACCGUCAAAUUGCGGGAAAGGGGUCAACAGCCGUUCAGUACCAAGUCUCAGGGGAAACUUUGAGAUGGCCUUGCAAAGGGUAUGGUAAUAAGCUGACGGACAUGGUCCUAACCACGCAGCCAAGUCCUAAGUCAACAGAUCUUCUGUUGAUAUGGAUGCAGUUCACAGACUAAAUGUCGGUCGGGGAAGAUGUAUUCUUCUCAUAAGAUAUAGUCGGACCUCUCCUUAAUGGGAGCUAGCGGAUGAAGUGAUGCAACACUGGAGCCGCUGGGAACUAAUUUGUAUGCGAAAGUAUAUUGAUUAGUUUUGGAGUACUCGUGGUCG
Method in brief: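 A randomised library covering all eight P1ex-region intron nucleotides was built with the intron in the knt kanamycin-resistance gene on pET-22b(+) and held in E. coli BL21(DE3). Cells were grown overnight at 37°C or 30°C on LB agar, with or without 25 μg/mL kanamycin, plus 100 μg/mL carbenicillin, 50 μM IPTG and 0.2% rhamnose, and pooled colonies were amplicon-sequenced on an Illumina HiSeq 2500. DiMSum fitness is the error-weighted combination of wild-type-normalised replicate fold changes, kanamycin versus none.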

| Sequence | self-splicing fitness (ln) (30 °C) | self-splicing fitness (ln) (37 °C) |
| --- | --- | --- |
| GACCAGCAAUAUUACGGAUU | -0.723 ± 0.049 | -0.029 ± 0.062 |
| UUUGAGCAAUAUUACGGCGU | -3.7 ± 0.26 | -1.9 ± 0.2 |
| GCGAAGCAAUAUUACGUUUA | -2.57 ± 0.14 | -1.32 ± 0.11 |
| AAGGAGCAAUAUUACGGCUC | -4.14 ± 0.37 | -2.77 ± 0.36 |
| ACUUAGCAAUAUUACGUUUC | -4.28 ± 0.31 | -2.78 ± 0.27 |
| ACCGAGCAAUAUUACGAUCA | -2.6 ± 0.24 | -0.928 ± 0.19 |
| UGCAAGCAAUAUUACGGGUA | -0.497 ± 0.084 | 0.0384 ± 0.095 |
| UCCUAGCAAUAUUACGGCUG | -3.67 ± 0.39 | -1.37 ± 0.47 |
| UAUGAGCAAUAUUACGUCCC | -2.74 ± 0.49 |  |
| CCAGAGCAAUAUUACGGUUA | -2.7 ± 0.18 | -2.01 ± 0.25 |
| UUCAAGCAAUAUUACGCAAA | -1.96 ± 0.16 | -0.991 ± 0.15 |
| UCCUAGCAAUAUUACGUAUA | -3.53 ± 0.28 | -2.03 ± 0.16 |
| CACCAGCAAUAUUACGAGAC |  | -2.02 ± 0.32 |
| GUAUAGCAAUAUUACGCGCG | -1.55 ± 0.14 | -0.678 ± 0.15 |
| GCCGAGCAAUAUUACGGAUU | -1.37 ± 0.08 | -0.945 ± 0.092 |
| GAAGAGCAAUAUUACGUCAA | -3.04 ± 0.27 | -2.16 ± 0.22 |
| UGAGAGCAAUAUUACGGAAA |  | -1.92 ± 0.39 |
| GAGUAGCAAUAUUACGCGAG | -3.35 ± 0.16 | -0.947 ± 0.1 |
| AGUCAGCAAUAUUACGCCCA | -1.19 ± 0.13 | 0.479 ± 0.18 |
| UUAGAGCAAUAUUACGUCUG | -0.606 ± 0.11 | -0.672 ± 0.12 |
| CGGCAGCAAUAUUACGAGUU | -5.14 ± 0.41 | -2.69 ± 0.29 |
| CGAUAGCAAUAUUACGUGCC | -1.8 ± 0.15 | 0.00354 ± 0.14 |
| GCCAAGCAAUAUUACGGAUU | -1.2 ± 0.056 | -0.294 ± 0.08 |
| AAAUAGCAAUAUUACGCCAU | -3.75 ± 0.25 | -2.36 ± 0.24 |
| AUCGAGCAAUAUUACGAUGU | -2.9 ± 0.12 | -1.76 ± 0.11 |

| Sequence | self-splicing fitness (ln) (30 °C) | self-splicing fitness (ln) (37 °C) |
| --- | --- | --- |
| CAUAAGCAAUAUUACGUGGU | -3.76 ± 0.17 | -3.31 ± 0.2 |
| GAGUAGCAAUAUUACGGGAU | -3.73 ± 0.33 | -2.96 ± 0.35 |
| CCAAAGCAAUAUUACGUAAU | -4.12 ± 0.18 | -2.62 ± 0.19 |
| GGCGAGCAAUAUUACGCGCG |  | -0.647 ± 0.18 |
| UCUGAGCAAUAUUACGCUCG | -3.7 ± 0.37 | -0.349 ± 0.23 |
| AGGCAGCAAUAUUACGCAUA | -0.866 ± 0.081 | -1.07 ± 0.093 |
| CGCCAGCAAUAUUACGGUUG | -3.7 ± 0.17 | -1.78 ± 0.15 |
| UACCAGCAAUAUUACGAGUA | -1.25 ± 0.085 | -1.69 ± 0.08 |
| GCAUAGCAAUAUUACGAUCU | -0.849 ± 0.075 | -0.178 ± 0.081 |
| AGUCAGCAAUAUUACGAACC | -0.519 ± 0.15 | -0.0581 ± 0.16 |
| UCUCAGCAAUAUUACGUGCU | -4.22 ± 0.23 | -2.61 ± 0.2 |
| AUGCAGCAAUAUUACGCGGU | -4.01 ± 0.21 | -1.85 ± 0.16 |
| GCACAGCAAUAUUACGUCAG | -2.44 ± 0.12 | -2.48 ± 0.21 |
| AGUGAGCAAUAUUACGAUUG | -3.59 ± 0.42 | -2.77 ± 0.38 |
| CCAAAGCAAUAUUACGCGAG | -2.62 ± 0.098 | -1.42 ± 0.094 |
| GUAGAGCAAUAUUACGUGGA |  | -3.25 ± 0.3 |
| UUAUAGCAAUAUUACGUCUC | -3.25 ± 0.33 | -2.13 ± 0.3 |
| CCCGAGCAAUAUUACGGGUC | -4.34 ± 0.28 | -2.12 ± 0.23 |
| GUACAGCAAUAUUACGCCAG | -3.75 ± 0.24 | -2.32 ± 0.45 |
| ACCGAGCAAUAUUACGAGGG | -3.2 ± 0.17 | -3.06 ± 0.21 |
| GACCAGCAAUAUUACGUCAC | -4.24 ± 0.27 | -2.54 ± 0.2 |
| CCGAAGCAAUAUUACGAACU | -3.08 ± 0.29 | -2.17 ± 0.46 |
| ACGCAGCAAUAUUACGGAGG | -3.65 ± 0.15 | -1.84 ± 0.12 |
| GGGCAGCAAUAUUACGGUGU | -2.02 ± 0.1 | -1.21 ± 0.099 |
| CAGGAGCAAUAUUACGAAAG | -1.8 ± 0.17 | -1.11 ± 0.23 |

| Sequence | self-splicing fitness (ln) (30 °C) | self-splicing fitness (ln) (37 °C) |
| --- | --- | --- |
| CGGAAGCAAUAUUACGCUAC | -2.38 ± 0.24 | -3.01 ± 0.47 |
| GAAAAGCAAUAUUACGAUCC | -1 ± 0.11 | -0.724 ± 0.15 |
| CUUCAGCAAUAUUACGAUCA |  | -1.38 ± 0.32 |
| AAUGAGCAAUAUUACGCGAG | -2.49 ± 0.16 | -1.46 ± 0.14 |
| GUUCAGCAAUAUUACGACCA | -0.964 ± 0.14 | -0.856 ± 0.13 |
| GGACAGCAAUAUUACGAUUA | -0.666 ± 0.13 | -0.225 ± 0.12 |
| AUGAAGCAAUAUUACGACUA | 0.0947 ± 0.059 | -0.133 ± 0.059 |
| ACCGAGCAAUAUUACGUGAA | -4.46 ± 0.17 | -2.3 ± 0.14 |
| UGACAGCAAUAUUACGGCAU | -1.88 ± 0.073 | -0.478 ± 0.087 |
| CGAUAGCAAUAUUACGCGUA | -2.42 ± 0.41 | -2.14 ± 0.24 |
| CACGAGCAAUAUUACGGGCC | -3.08 ± 0.38 | -2.24 ± 0.31 |
| UGGGAGCAAUAUUACGUUAU | -3.22 ± 0.27 | -1.86 ± 0.34 |
| AAGAAGCAAUAUUACGGGAC | -2.85 ± 0.18 | -2.63 ± 0.44 |
| ACCUAGCAAUAUUACGGUCU | -1.69 ± 0.096 | -0.98 ± 0.11 |
| AUGGAGCAAUAUUACGGAGU |  | -2.34 ± 0.27 |
| AUCCAGCAAUAUUACGAAAU | -0.769 ± 0.084 | -0.546 ± 0.11 |
| UGUCAGCAAUAUUACGGAGC |  | -2.89 ± 0.43 |
| GUCCAGCAAUAUUACGCAUC | -0.179 ± 0.089 | 0.142 ± 0.12 |
| AGGUAGCAAUAUUACGCCGG | -1.09 ± 0.017 | -0.556 ± 0.034 |
| GCUAAGCAAUAUUACGCUGG | -4.23 ± 0.24 | -2.76 ± 0.26 |
| CAAGAGCAAUAUUACGAAUG | -2.34 ± 0.09 | -1.79 ± 0.14 |
| CAAGAGCAAUAUUACGUGUA | -3.48 ± 0.17 | -2.42 ± 0.17 |
| GACUAGCAAUAUUACGAACC | -1.64 ± 0.17 | -0.0491 ± 0.19 |
| CAGGAGCAAUAUUACGAGCA | -2.15 ± 0.33 | -1.53 ± 0.36 |
| UGGAAGCAAUAUUACGGCUA | -0.499 ± 0.14 | -0.0289 ± 0.23 |

| Sequence | self-splicing fitness (ln) (30 °C) | self-splicing fitness (ln) (37 °C) |
| --- | --- | --- |
| GAAGAGCAAUAUUACGGCUC | -1.85 ± 0.24 | -2.06 ± 0.3 |
| GCCUAGCAAUAUUACGCUCA | -1.68 ± 0.16 | -0.0373 ± 0.17 |
| UAUCAGCAAUAUUACGGUGU | -1.35 ± 0.072 | -1.19 ± 0.098 |
| AGACAGCAAUAUUACGAUCG | -0.599 ± 0.072 | 0.599 ± 0.11 |
| UUCUAGCAAUAUUACGCAGC |  | -0.431 ± 0.2 |
| CCUUAGCAAUAUUACGAGAG | -2.05 ± 0.11 | -1.42 ± 0.1 |
| GAAGAGCAAUAUUACGUGGG | -3.22 ± 0.16 | -3.05 ± 0.2 |
| AACGAGCAAUAUUACGUAUG | -4.21 ± 0.23 | -2.59 ± 0.17 |
| UAUGAGCAAUAUUACGGGUU | -4.04 ± 0.3 | -2.41 ± 0.27 |
| AGUUAGCAAUAUUACGUGUU | -3.25 ± 0.15 | -1.52 ± 0.14 |
| UUACAGCAAUAUUACGCAGC | -4.38 ± 0.26 | -3.01 ± 0.16 |
| GCCAAGCAAUAUUACGUGUG | -1.8 ± 0.07 | -0.823 ± 0.08 |
| CUUCAGCAAUAUUACGGCUU | -3.25 ± 0.16 | -3.2 ± 0.26 |
| AGGGAGCAAUAUUACGCUUG | -1.95 ± 0.27 |  |
| AAAGAGCAAUAUUACGAAGU | -3.28 ± 0.38 | -2.05 ± 0.32 |
| GUGUAGCAAUAUUACGAAUC | -1.43 ± 0.17 | -0.973 ± 0.14 |
| GUUAAGCAAUAUUACGUGAG | -0.109 ± 0.052 | -0.0542 ± 0.098 |
| GACGAGCAAUAUUACGGCAC | -2.53 ± 0.18 | -1.62 ± 0.16 |
| AUACAGCAAUAUUACGAUAU | -1.45 ± 0.092 | -0.42 ± 0.1 |
| CGGGAGCAAUAUUACGCGUG | -3.47 ± 0.18 | -1.65 ± 0.13 |
| GGAAAGCAAUAUUACGUACA | -0.523 ± 0.14 | 6.9e-05 ± 0.15 |
| UUUUAGCAAUAUUACGCCCU | -2.16 ± 0.35 | -0.426 ± 0.28 |
| CCUGAGCAAUAUUACGCGGU | -3.87 ± 0.21 | -1.54 ± 0.16 |
